The test system of this data set is Escherichia coli TOP10. The data set can be described thus: shrunken log2 fold change of peptide-encoding DNA abundance (4.5 h post-induction vs induction); higher = less antimicrobial activity (less host growth inhibition). Conditions: time post-induction: 4.5 h; library: site-saturation at positions 5, 18, 19, 20.
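Note: peptides expressed intracellularly from a pBAD plasmid library in pooled LB shake-flask culture, induced with 0.3% L-arabinose, DNA abundance read by NGS, three biological replicates, DESeq2 with apeglm shrinkage.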

Turning to RRIRQRPPRLPRPRPRPYETPRP, the “shrunken log2 fold change” value is -0.427.

As to RRIRFRPPRLPRPRPRPKKAPRP, the “shrunken log2 fold change” value came to 0.173.

For the sequence RRIRVRPPRLPRPRPRPEMHPRP, the “shrunken log2 fold change” value was 0.209.

RRIRERPPRLPRPRPRPVGMPRP: the “shrunken log2 fold change” value was -0.0934.

As to RRIRERPPRLPRPRPRPHLCPRP, the “shrunken log2 fold change” value was -0.101.

For the sequence RRIRGRPPRLPRPRPRPSGNPRP, the “shrunken log2 fold change” value turned out to be 0.18.

For RRIRVRPPRLPRPRPRPFNHPRP, the “shrunken log2 fold change” value was -0.106.

Turning to RRIRSRPPRLPRPRPRPYHDPRP, the “shrunken log2 fold change” value was -0.174.

As for RRIRERPPRLPRPRPRPKYIPRP, the “shrunken log2 fold change” value was -0.0434.

Turning to RRIRDRPPRLPRPRPRPRWCPRP, the “shrunken log2 fold change” value stood at 0.33.

For the sequence RRIRNRPPRLPRPRPRPELNPRP, the “shrunken log2 fold change” value was -0.0809.

RRIRGRPPRLPRPRPRPGAPPRP: the “shrunken log2 fold change” value was 1.29.

RRIRKRPPRLPRPRPRPVWDPRP: the “shrunken log2 fold change” value is 2.04.

RRIRYRPPRLPRPRPRPCTVPRP: the “shrunken log2 fold change” value is -0.0835.

On to RRIRCRPPRLPRPRPRPHYYPRP, for which the “shrunken log2 fold change” value is -1.07.

On to RRIRKRPPRLPRPRPRPSFMPRP, for which the “shrunken log2 fold change” value amounted to 1.94.

In the case of RRIRNRPPRLPRPRPRPGDPPRP, the “shrunken log2 fold change” value came out at 0.306.

For the sequence RRIRCRPPRLPRPRPRPIPGPRP, the “shrunken log2 fold change” value is -0.000108.

On to RRIRERPPRLPRPRPRPWYTPRP, for which the “shrunken log2 fold change” value amounted to 3.82.

As for RRIRTRPPRLPRPRPRPELQPRP, the “shrunken log2 fold change” value was -0.0178.

RRIRFRPPRLPRPRPRPISKPRP: the “shrunken log2 fold change” value was -0.0939.

As to RRIRRRPPRLPRPRPRPFAYPRP, the “shrunken log2 fold change” value is -0.0942.

In the case of RRIRQRPPRLPRPRPRPCSDPRP, the “shrunken log2 fold change” value is -0.136.

For RRIRIRPPRLPRPRPRPIKHPRP, the “shrunken log2 fold change” value is -0.571.

Regarding RRIRWRPPRLPRPRPRPRYQPRP, the “shrunken log2 fold change” value is -0.188.

Consider RRIRRRPPRLPRPRPRPMKAPRP, for which the “shrunken log2 fold change” value was determined as 0.0483.

With RRIRDRPPRLPRPRPRPQQNPRP, the “shrunken log2 fold change” value is -0.452.

RRIRLRPPRLPRPRPRPNIPPRP: the “shrunken log2 fold change” value was -0.823.

Consider RRIRWRPPRLPRPRPRPLESPRP, for which the “shrunken log2 fold change” value worked out at 0.176.

For the sequence RRIRHRPPRLPRPRPRPHVMPRP, the “shrunken log2 fold change” value was -0.185.

For the sequence RRIRCRPPRLPRPRPRPHRLPRP, the “shrunken log2 fold change” value was -0.227.

RRIRIRPPRLPRPRPRPRSIPRP: the “shrunken log2 fold change” value is 0.0721.

In the case of RRIRGRPPRLPRPRPRPICWPRP, the “shrunken log2 fold change” value was found to be 0.714.

Take RRIRTRPPRLPRPRPRPIDPPRP: the “shrunken log2 fold change” value was -0.201.

Take RRIRHRPPRLPRPRPRPVQPPRP: the “shrunken log2 fold change” value is -0.0332.

On to RRIRERPPRLPRPRPRPLNEPRP, for which the “shrunken log2 fold change” value was -0.13.

As for RRIRGRPPRLPRPRPRPIGLPRP, the “shrunken log2 fold change” value stood at 0.19.

In the case of RRIRWRPPRLPRPRPRPVPAPRP, the “shrunken log2 fold change” value turned out to be 0.532.

As for RRIRMRPPRLPRPRPRPECHPRP, the “shrunken log2 fold change” value was -0.0482.

Regarding RRIRSRPPRLPRPRPRPFHDPRP, the “shrunken log2 fold change” value is -0.204.

Take RRIRGRPPRLPRPRPRPGIRPRP: the “shrunken log2 fold change” value was 0.208.

As to RRIRLRPPRLPRPRPRPIWIPRP, the “shrunken log2 fold change” value was -0.134.

Turning to RRIRTRPPRLPRPRPRPIWKPRP, the “shrunken log2 fold change” value is 0.0742.

Take RRIRQRPPRLPRPRPRPLMHPRP: the “shrunken log2 fold change” value is -0.00724.

As for RRIRHRPPRLPRPRPRPTRCPRP, the “shrunken log2 fold change” value was -0.00896.

Turning to RRIRERPPRLPRPRPRPNMIPRP, the “shrunken log2 fold change” value was -0.272.

In the case of RRIRARPPRLPRPRPRPMMSPRP, the “shrunken log2 fold change” value is 0.186.

For RRIRVRPPRLPRPRPRPMILPRP, the “shrunken log2 fold change” value is -0.0833.

On to RRIRRRPPRLPRPRPRPCPHPRP, for which the “shrunken log2 fold change” value is -0.27.

RRIRARPPRLPRPRPRPCTGPRP: the “shrunken log2 fold change” value was -0.041.

Turning to RRIRSRPPRLPRPRPRPMQEPRP, the “shrunken log2 fold change” value turned out to be 0.169.

In the case of RRIRWRPPRLPRPRPRPKQQPRP, the “shrunken log2 fold change” value is -0.133.

Regarding RRIRQRPPRLPRPRPRPVTWPRP, the “shrunken log2 fold change” value is -0.073.

In the case of RRIRVRPPRLPRPRPRPTMWPRP, the “shrunken log2 fold change” value amounted to 0.267.

As to RRIRERPPRLPRPRPRPCLGPRP, the “shrunken log2 fold change” value is -0.0295.

For RRIRDRPPRLPRPRPRPRNMPRP, the “shrunken log2 fold change” value is -0.602.

RRIRWRPPRLPRPRPRPHYCPRP: the “shrunken log2 fold change” value was -0.269.

Turning to RRIRERPPRLPRPRPRPQYPPRP, the “shrunken log2 fold change” value is -0.208.

As to RRIRRRPPRLPRPRPRPRSEPRP, the “shrunken log2 fold change” value is 0.342.

As for RRIRRRPPRLPRPRPRPPGVPRP, the “shrunken log2 fold change” value is 0.704.

As for RRIRERPPRLPRPRPRPVPRPRP, the “shrunken log2 fold change” value is 0.151.

In the case of RRIRPRPPRLPRPRPRPYFGPRP, the “shrunken log2 fold change” value was -0.522.

As for RRIRLRPPRLPRPRPRPYQNPRP, the “shrunken log2 fold change” value is -0.0985.

For the sequence RRIRIRPPRLPRPRPRPMCVPRP, the “shrunken log2 fold change” value is -0.209.

Consider RRIRQRPPRLPRPRPRPTREPRP, for which the “shrunken log2 fold change” value is -0.081.

Turning to RRIRARPPRLPRPRPRPDQVPRP, the “shrunken log2 fold change” value came to 0.359.

Take RRIRGRPPRLPRPRPRPCYGPRP: the “shrunken log2 fold change” value was -0.277.

With RRIRVRPPRLPRPRPRPGYMPRP, the “shrunken log2 fold change” value was -0.37.

RRIRFRPPRLPRPRPRPPYTPRP: the “shrunken log2 fold change” value was -0.419.

Take RRIRFRPPRLPRPRPRPHNCPRP: the “shrunken log2 fold change” value was -0.3.

Consider RRIRMRPPRLPRPRPRPIYCPRP, for which the “shrunken log2 fold change” value was -0.163.

As to RRIRVRPPRLPRPRPRPHVLPRP, the “shrunken log2 fold change” value is -0.067.

For RRIRKRPPRLPRPRPRPDTHPRP, the “shrunken log2 fold change” value was determined as 0.234.

RRIRLRPPRLPRPRPRPCLVPRP: the “shrunken log2 fold change” value is 0.127.

In the case of RRIRQRPPRLPRPRPRPWFSPRP, the “shrunken log2 fold change” value is -0.102.

Consider RRIRNRPPRLPRPRPRPFVQPRP, for which the “shrunken log2 fold change” value was -0.225.

For RRIRERPPRLPRPRPRPAHQPRP, the “shrunken log2 fold change” value is -0.136.

Turning to RRIRIRPPRLPRPRPRPHQQPRP, the “shrunken log2 fold change” value was -0.132.

With RRIRKRPPRLPRPRPRPSHKPRP, the “shrunken log2 fold change” value is -0.262.

In the case of RRIRCRPPRLPRPRPRPESSPRP, the “shrunken log2 fold change” value was -0.16.

RRIRNRPPRLPRPRPRPINAPRP: the “shrunken log2 fold change” value was -0.00965.

With RRIRHRPPRLPRPRPRPLDCPRP, the “shrunken log2 fold change” value is -0.384.

RRIRNRPPRLPRPRPRPTHMPRP: the “shrunken log2 fold change” value was 0.0687.

Take RRIRCRPPRLPRPRPRPYFIPRP: the “shrunken log2 fold change” value is -1.18.

As for RRIRSRPPRLPRPRPRPQRYPRP, the “shrunken log2 fold change” value is -0.167.

For the sequence RRIRVRPPRLPRPRPRPGQIPRP, the “shrunken log2 fold change” value is -0.0586.

Turning to RRIRHRPPRLPRPRPRPGMAPRP, the “shrunken log2 fold change” value came out at 0.0763.

On to RRIRWRPPRLPRPRPRPSCWPRP, for which the “shrunken log2 fold change” value worked out at 0.0114.

For the sequence RRIRMRPPRLPRPRPRPGWWPRP, the “shrunken log2 fold change” value was -0.026.

With RRIRCRPPRLPRPRPRPRHSPRP, the “shrunken log2 fold change” value is -0.102.

Turning to RRIRHRPPRLPRPRPRPLAEPRP, the “shrunken log2 fold change” value worked out at 0.243.

With RRIRIRPPRLPRPRPRPWWYPRP, the “shrunken log2 fold change” value was -0.179.

Take RRIRNRPPRLPRPRPRPTCEPRP: the “shrunken log2 fold change” value was -0.0176.

With RRIRGRPPRLPRPRPRPPICPRP, the “shrunken log2 fold change” value was 0.155.

For RRIRKRPPRLPRPRPRPFKTPRP, the “shrunken log2 fold change” value was 0.427.

In the case of RRIRERPPRLPRPRPRPKFLPRP, the “shrunken log2 fold change” value was -0.219.

As for RRIRSRPPRLPRPRPRPQATPRP, the “shrunken log2 fold change” value is -0.107.

Regarding RRIRHRPPRLPRPRPRPNRKPRP, the “shrunken log2 fold change” value came out at 0.0857.

Take RRIRQRPPRLPRPRPRPCPSPRP: the “shrunken log2 fold change” value stood at 0.0332.

Consider RRIRLRPPRLPRPRPRPYHCPRP, for which the “shrunken log2 fold change” value is -0.575.

Turning to RRIRRRPPRLPRPRPRPMPVPRP, the “shrunken log2 fold change” value came to 0.388.

As to RRIRQRPPRLPRPRPRPHYTPRP, the “shrunken log2 fold change” value was -0.509.

As to RRIRTRPPRLPRPRPRPFVKPRP, the “shrunken log2 fold change” value was -0.838.

Turning to RRIRTRPPRLPRPRPRPGPAPRP, the “shrunken log2 fold change” value was 0.35.

For the sequence RRIRVRPPRLPRPRPRPGWCPRP, the “shrunken log2 fold change” value came to 0.146.

For the sequence RRIRCRPPRLPRPRPRPSNVPRP, the “shrunken log2 fold change” value was -0.608.

Take RRIRCRPPRLPRPRPRPIYVPRP: the “shrunken log2 fold change” value was -0.447.

As to RRIRRRPPRLPRPRPRPFYGPRP, the “shrunken log2 fold change” value was -0.0114.

In the case of RRIRFRPPRLPRPRPRPCECPRP, the “shrunken log2 fold change” value is -0.138.

On to RRIRQRPPRLPRPRPRPDAAPRP, for which the “shrunken log2 fold change” value was 1.08.

Regarding RRIRDRPPRLPRPRPRPEHDPRP, the “shrunken log2 fold change” value is -0.0084.

RRIRGRPPRLPRPRPRPYTFPRP: the “shrunken log2 fold change” value stood at 0.151.

Regarding RRIRRRPPRLPRPRPRPIVLPRP, the “shrunken log2 fold change” value is -0.102.

Take RRIRYRPPRLPRPRPRPGEEPRP: the “shrunken log2 fold change” value was determined as 0.0322.

Consider RRIRDRPPRLPRPRPRPHKHPRP, for which the “shrunken log2 fold change” value was -0.217.

Turning to RRIRRRPPRLPRPRPRPRHLPRP, the “shrunken log2 fold change” value turned out to be 0.197.

On to RRIRYRPPRLPRPRPRPHMAPRP, for which the “shrunken log2 fold change” value was -0.155.

For the sequence RRIRNRPPRLPRPRPRPMLPPRP, the “shrunken log2 fold change” value is 0.00241.

As to RRIRLRPPRLPRPRPRPTDIPRP, the “shrunken log2 fold change” value is -0.0682.

Consider RRIRGRPPRLPRPRPRPKWDPRP, for which the “shrunken log2 fold change” value came to 0.771.

For RRIRERPPRLPRPRPRPADKPRP, the “shrunken log2 fold change” value was -0.187.

With RRIRRRPPRLPRPRPRPVVYPRP, the “shrunken log2 fold change” value stood at 0.152.

With RRIRERPPRLPRPRPRPIMMPRP, the “shrunken log2 fold change” value is -0.689.

For RRIRHRPPRLPRPRPRPAPEPRP, the “shrunken log2 fold change” value worked out at 0.0106.

RRIRYRPPRLPRPRPRPNLCPRP: the “shrunken log2 fold change” value was -1.35.
